# T1: NXF1(RRM-LRR) (UniProt Q9UBU9 96-362)
# T1 sequence: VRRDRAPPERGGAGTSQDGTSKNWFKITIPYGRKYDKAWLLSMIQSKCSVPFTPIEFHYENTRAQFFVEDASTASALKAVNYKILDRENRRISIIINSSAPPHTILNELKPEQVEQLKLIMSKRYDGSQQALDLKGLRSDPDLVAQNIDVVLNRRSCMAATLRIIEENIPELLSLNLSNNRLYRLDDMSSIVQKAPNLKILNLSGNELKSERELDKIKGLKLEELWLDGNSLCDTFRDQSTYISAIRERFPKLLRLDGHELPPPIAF
# Target: T1, NXF1(RRM-LRR)
# Assay: EMSA; in presence of GST-Nsp1(1-129); RNA binding of NXF1 not impaired; 10 mM Tris pH 8.0, 100 mM NaCl, 0.5 mM TCEP, 8% glycerol, 0.5 U/ul SUPERase-In, room temperature 10 min; 5% native PAGE; 100 nM RNA
# Details: protein: recombinant; tags: GST tag removed by TEV; label: 5' Alexa Fluor 488; single strand
binder,measurement,value
UUUUUUUUUUUUUUU (ssRNA) [poly(U) 15-mer RNA],binding result,binds

# Source: paper PMC7864571
